The target of data set [1] is porcine αβ-tubulin, as dynamic microtubules polymerizing from soluble αβ-tubulin (porcine) (UniProt P02550). Put plainly: TIRF microscopy of dynamic microtubules.
Data set [2] deals with the molecule itself. Put plainly: single-molecule fluorescence intensity distribution.
Data set [3] addresses porcine αβ-tubulin, as dynamic microtubules polymerizing from soluble αβ-tubulin (porcine) (UniProt P02550). The experiment in a line: single-molecule TIRF microscopy of dynamic microtubules.

From publication PMC6724690 (Molecular Biology of the Cell, 2019) come the findings set out here.

B1: Alp14 (residues 1–690) C-terminally fused to mNeonGreen (domain or fragment)
chain: MSQDQEEDYSKLPLESRIVHKVWKVRLSAYEECSKSFSLSADGSDNCFELWNNQSELWKSVLTDSNVAAQEAGTAAFVAYCRFSDPSHLLKAREISVLSISEKCLTSPRAGTRENALEALMLLVEADSAAPVIESIIPSLSARSPKVIASNVAAIASLVEQFGAKVIPSKMIIPHISNLFGHADKNVRKEASRLTVNIYRWTGDPLKDLLFKDLRPVQTKELESLFAELPTEPPKQTRFLKSQQPTSEPNVETQVEEQPALENEESEPEPSDDQFDLVEEVDVLPNVDPNLETLMASSKWKDRKEALDKLLPVLSQPKIKDNDFFNLVAILTKSVSKDANIMVVINAAHCIQAMAKGLRSNFSKYASTSINALLERSKEKKANVIESLSSAMDAVLATSSLDDLAELIASFAGNKNPQIKSSCFSLFSRSFSNMTSLPSKFTVDTCAKACVPGVSDTFEPVRSAAAEALGVLMKLVGERAINQYLSPLDDIRKSKIRSFYETATVKAKAPTKKSKVKPSKQEESKVVVPSNAKAVKKSVVPSSPVVPSPRKATNKSLSMDVSKGNAFENGPLLPRPTTRPVSRGLSRGTSSSLQQKVKASTPLNSGALNETVQNLKNMELDDPAPQPAKHSRVDRYEHPKVLEDNDSTISSLESLKRENEELREQLKVEHEENISMQKQLSELKGELNTL
For B1, in data set [1], the average MT plus-end tracking ratio was 0.89 and the average tracking time at MT plus ends came to 125 s.

B2: C-terminal-SNAPf-tagged Alp14 (residues 1–690), labelled with SNAP-surface Atto-488 (domain or fragment, S. pombe, UniProt O94534 1-690, looked up)
chain: B1 chain
modifications: SNAP-surface Atto-488 fluorophore covalently attached to the SNAP tag
On to B2, for which the stoichiometry N (as a rule, a count of units in the complex or per binding partner) in data set [2] is 2. Also, the mean dwell time at polymerizing MT plus ends in data set [3] came out at 129 s.
